From patent US20240209104A1 (SHANGHAI ACEMAB, published 2024)

T1: hOX40-EC-His (human, UniProt P43489 29-214)
T1 construct: extracellular domain; bought protein; also called recombinant human OX40 antigen protein; human OX40 extracellular segment antigen; not shown: 6 His label
T1 sequence (looked up): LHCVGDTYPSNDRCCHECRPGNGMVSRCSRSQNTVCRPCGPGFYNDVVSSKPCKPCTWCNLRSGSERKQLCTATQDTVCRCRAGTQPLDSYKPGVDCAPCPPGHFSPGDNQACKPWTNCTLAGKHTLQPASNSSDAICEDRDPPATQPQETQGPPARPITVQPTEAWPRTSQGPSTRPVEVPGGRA

T2: OX40 on OX40 over-expressed cells (UniProt P43489 29-277)
T2 construct: whole, on cells; human implied; also called OX40 expressed on the surface of OX40 expressing cell
T2 sequence (looked up): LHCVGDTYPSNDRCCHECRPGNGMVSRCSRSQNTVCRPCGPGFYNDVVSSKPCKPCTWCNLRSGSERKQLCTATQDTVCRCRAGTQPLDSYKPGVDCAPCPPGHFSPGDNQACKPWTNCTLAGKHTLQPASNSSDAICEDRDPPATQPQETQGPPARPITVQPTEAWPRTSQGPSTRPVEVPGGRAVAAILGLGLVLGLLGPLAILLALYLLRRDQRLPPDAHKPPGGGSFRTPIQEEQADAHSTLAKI


Key:
hOX40-EC-His [1] = molecular target: T1, hOX40-EC-His; assay: ELISA, supernatant stoste, coated OX40 (CK60)
hOX40-EC-His [2] = molecular target: T1, hOX40-EC-His; assay: ELISA, supernatant diluted 100 times, coated OX40 (CK60)
[3] = molecular target: T2, OX40 on OX40 over-expressed cells; assay: flow cytometry, supernatant on OX40 over-expressed cells
Method: After collecting OX40 over-expressed cells by 200G centrifugation, wash them with PBS containing 3% FCS, and then resuspend them in 2.5 ml of PBS containing 3% FCS. […] Finally, the cells were resuspended in […] of PBS containing 3% FCS for detection by flow cytometry.

hOX40-EC-His [4] = molecular target: T1, hOX40-EC-His; assay: ELISA, supernatant 1:100, coated hOX40-EC-His

Binder | 450 nm light absorption (hOX40-EC-His [1]) [OD450] | 450 nm light absorption (hOX40-EC-His [2]) [OD450] | Y586 channel PE fluorescence value [3] | IgG ELISA (1:100) (hOX40-EC-His [4]) [OD650]
24E10-4 (antibody, V domains shown, hybridoma antibody, tested as culture supernatant) VH: QVQMQESGPGLVKPSGTLSLTCAVSGGSISSSKWWSWVRQPPGKGLEWIGEIYHSGSTNYNPSLKSRVTISIDKSKNQFSLRLTSVTAADTAVYYCARGDVLLWFGGQGTLVTVSS VL: EIVLTQSPGTLSLSPGERATLSCWASQSVSSTYLAWYQQKPGQAPRLLIYGASIRATGIPDRFSGSGSGTDFTLTISSLEPEDFAVYYCQQYGSSPITFGQGTRLEIKR | 2.51 | 2.4 | 344000 | 
17D5-11 (antibody, V domains shown, hybridoma antibody, tested as culture supernatant) VH: QVQLQESGPGLVKPSETLSLTCAVSGGSINSTNWWSWVRQPPGKGLEWIGEIYHSGSTNYNPSLKSRVTISVDKSKNQFSLKLSSVTAADTAVYYCARGGAVALDYWGQGTLVTVSS VL: EIVLTQSPGPLSLSPGDRATLSCRASQTVSSSYLAWYLQKPGQAPRLLIYGASIRATGIPDRFSGSGSGTDFTLTISRLEPEDFAVYYCQQYGNSPITFGQGTRLEIKR | 2.46 | 2.32 | 475000 | 
26C3-4 (antibody, V domains shown, hybridoma antibody, tested as culture supernatant) VH: QVQLQESGPGLVKPSGTLSLTCDVSGGSISSSNWWSWVRQPPGKGLEWIGEIYHSGSTNYNPSLKSRVTISVDKSKNQVSLKLNSVTAADTAVYYCARGDILLWFGGQGTLVTVSS VL: not shown | 2.32 | 1.91 | 416000 | 
18F5-2 (antibody, V domains shown, hybridoma antibody, tested as culture supernatant) VH: QVQMQESGPGLVKPSGTLSLICAVSGGSISSSKWWSWVRQPPGKGLEWIGEIYHSGSTNYNPSLKSRVTISIDKSKNQFSLRLTSVTAADTAVYYCARGDVLLWFGGQGTLVTVSS VL: not shown | 2.35 | 2.2 | 432000 | 
48D10-5 (antibody, V domains shown, hybridoma antibody, tested as culture supernatant) VH: QVQLVQSGAEVKKPGASMKVSCKASGYTFANFGINWVRQAPGQGLEWMGWISAYNGYTNYAQQFQGRITMTTDTSTSTAYMELRSLRSDDTAIYYCVIWFGELLSFDYWGQGTLVTVSS VL: DIQMTQFPSSLSASVGDRVTITCRASQDISNYLAWFQQKPGKAPKSLIYAASSLQSGVPSKFSGNGFGTDFTFPLSRMQPEDFASSYCQQYNNYTFTFGRGTKVEIKR | 2.45 | 2.35 | 358000 | 
24F10-1 (antibody, V domains shown, hybridoma antibody, tested as culture supernatant) VH: QVQLQESGPGLVKPSGNLSLTCVVSGASIINNNWWTWVRQSPGKGLEWIGEIFHSGTTNYNPSLKNRVTISVDKAKNQFSLNLKSVTAADTAVYYCVAYVSGTYYNFDYWGQGTLVTVSS VL: not shown | 2.41 | 2.2 | 274000 | 
21F3-11 (antibody, V domains shown, hybridoma antibody, tested as culture supernatant) VH: QVQLQESGPGLVKPSGTLSLTCAVSGGSISSSNWWSWVRQPPGKGLEWIGEIYHGGSTNYNPSLKSRITISVDKSKNQFSLKLSSVTAADTAMYYCATLPGYSSGWFDSWGQGTLVTVSS VL: EIVLMQSPGTLSLSPGERATLSCRASQSVSSSYLAWYQQKPGQAPSLLIYGASNRASGIPDRFSGSGSGTDFTLTITRLEPEDFAVYYCQQYGSSPLTFGGGTRVEIKR | 2.58 | 2.61 | 171000 | 1.9
20D2-12 (antibody, V domains shown, hybridoma antibody, tested as culture supernatant) VH: QVQLVESGGGLVKPGGSLRLSCAASGFTFSDYYMSWIRQAPGRGLEWISYISGSDSTIYYEDSVMGRFTISRDNAKNSLYLQMNSLRAEDTAVYYCARDRDVYGYSGYGYFDYWGQGTLVTVSS VL: EIVLTQSPGTLSLSPGERATLSCRASQSVSSRYLAWYQQKPGQAPRLLIYGASNRATGMPDRFSGSGSGTDFTLTISRLEPEDFAVYYCQQYGSSPITFGQGTRLEIKR | 3.81 | 2.32 | 540000 | 
24A12-12 (antibody, V domains shown, hybridoma antibody, tested as culture supernatant) VH: QVQLQESGPGLVKPAGTLSLTCAVSGGSISSSNWWNWVRQPPGKGLEWIGEIYHSGSTNYNPSLKSRVTISVDTSKNQFSLKLTSVTAADTAVYYCARTGPTVTTDYWGQGTLVTVSS VL: EIVLTQSPGTLSLSPGERATLSCRASQSVSSSYLAWYQQKPGQAPRLLIYGASYRATGMPERFSGSGSGTDFTLTISRLEPEDFAIYYCQQYGRSPLTFGGGTKVEIKR | 2.81 | 2.8 | 343000 | 
15A7-6 (antibody, V domains shown, hybridoma antibody, tested as culture supernatant) VH: QVQLQESGPGLVKPSGTLSLTCAVSGGSINSSSWWSWVRQPPGKGLEWIGEIYHSGDTNYNPSLKSRVAISVDKSKNQFSLKLSSVTAADTAVYYCARDQADYFGSGNYVYWGQGTLVTVSS VL: EIVLMQYPGTLSLSSGERRVLSCRPSQSVSSSYLAWYQQKPGQAPRLLIYGASSRASGIPDRFSGSGSGTDFTLTISRLEPEDFAVYYCQQYGSLPITFGQGTRVEIKR | 2.25 | 1.4 | 181000 | 
29A9-5 (antibody, V domains shown, hybridoma antibody, tested as culture supernatant) VH: QVQLQESGPGLVKPSGTLSLTCAVFGDSISSSYWWSWVRQPPGKGLEWIGEIYHSGSTHYNPSLKSRVTISVDKSKNHLSLKLISVTDADTAVYYCAGEDTGWPFDFWGQGTLVTVSS VL: not shown | 1.93 | 0.878 | 221000 | 
28E3-4 (antibody, V domains shown, hybridoma antibody, tested as culture supernatant) VH: QVQLQESGPGLVKPSGTLSLTCAVSGGSISRSNWWTWVRQSPGKGLEWIGEIYHSGNTNYNPSLKSRVTISLDKSKNQFSLKLSSVTAADTAVYYCASSGSLYMDVWGKGTTVTVSS VL: DIQMTQSPSSLSASVGDRVTISCRASQSTSSYLNWYQQKPGKAPRLLIYGASSLQSGVPSRFSGSGSGTDFILTISSLQPEDFATYYCQQSYSIPITFGQGTRLEIKR | 2.27 | 2.26 | 195000 | 2.1
29B8-3 (antibody, V domains shown, hybridoma antibody, tested as culture supernatant) VH: QVQLQESGPGLVKPSGTLSLTCAVSGVSISSSNWWSWVRQPPGKGLEWIGEIYHSGNTNYNPSLKSRVTISVDKSKNQFSLKLSSVTAADTAVYYCAETSTITTNYWGQGTLVTVSS VL: DIQMTQSPSSLSASVGDRVTITCRASQTISSYLNWYQQKPGKAPKLLIYAASSLQSGVPSRFSGSESGTDFTLTISSLQPEDFATYYCQQTYSIPITFGQGTRLEIKR | 2.46 | 2.36 | 388000 | 
4D9-12 (antibody, V domains shown, hybridoma antibody, tested as culture supernatant) VH: QVQLQESGPGLVKPSGTLSLTCAVSGGSISSSNWWSWVRQPPGKGLEWIGEIYHSGNTIYNPSLKSRVTISLDKSKNQFSLKLSSVTAADTAVYYCASSGSLYMDVWGKGTTVTVSS VL: DIQMTQSPSSLLSSVGDRVTISCRASHGSSTYLNWYQQKPGKAPRLLIYGASSLQSGVPSRFSGSGFGTDFILTISSMQPEDFATYYCQQSYSIPITFGQGTRLEIKR | 2.39 | 1.26 | 187000 | 2.3
24F8-7 (antibody, V domains shown, hybridoma antibody, tested as culture supernatant) VH: QVQLQESGPGLVKPSGTLSLTCAVSGGSISSYNWWSWVRQPPGKGLEWIGEIYHSGSTNYNPSLKSRVTISVDKSKNQFSLKLSSVTAADTAVYYCARDEDYYGSGNYYHWGQGTLVTVSS VL: not shown | 2.4 | 2.14 | 437000 | 
18F11-4 (antibody, V domains shown, hybridoma antibody, tested as culture supernatant) VH: QVQLQESGPGLVKPSGTLSLTCAVSGGSISSYNWWSWVRQPPGKGLEWIGEIYHSGSTNYNPSLKSRVTISVDKSKNQFSLKLSSVTAADTAVYYCARDEDYYGSGNYYHWGQGTLVTVSS VL: not shown | 1.87 | 1.32 | 402000 | 
21F9-12 (antibody, V domains shown, hybridoma antibody, tested as culture supernatant) VH: QVQLQESGPGLVKPSGTLSLTCAVSGGSISSYNWWSWVRQPPGKGLEWIGEIYHSGNTNYNPSLKSRVTISVDKSKNQFSLKLSSVTAADTAMYYCARDQDYYGSGNFYYWGQGTLVTVSS VL: not shown | 2.37 | 2 | 424000 | 
21D2-3 (antibody, V domains shown, hybridoma antibody, tested as culture supernatant) VH: QVQLVESGGGLVKPGGSLRLSCAASGFTFSDYYMSWIRQAPGKGLEWVSYISSSGTTIYCADSVKGRFTISRDNAKNSLYLQMNSLRAEDTAVYYCARDSSTWYEGNYFDYWGQGTLVTVSS VL: not shown | 2.03 | 1.38 | 202000 | 2.1
